Assay results taken from publication PMC9907207 (Nature Communications, 2023).
Read-outs that look alike come from different tables or passages of the source.

B1: GAR01 (antibody, V domains shown)
VH: QVQLVQSEGGVVQPGRSLRLSCTASGFTFSSYGMHWVRQAPGKGLEWVALISYDGSDKYYADSVKGRFTISRDNSKNTLYLQMNSLRPEDTAVFYCAKGGWYGSSSGFDYWGQGTLVTVSS
VL: DIQMTQSPSSLSASVGDRVTITCQASQDISNYLNWYQQKPGKAPKLLIYDASNLETGVPSRFSGSGSGTDFIFTISSLQPEDIATYYCQQYHDVPRTFGQGTKVEIK
B2: GAR04 (antibody, V domains shown)
VH: QVQLVQSGAEVKKSGASVKVSCKASGYTFTGYHMHWVRQAPGQGLEWMGWINPKSDGTNSAQKFQGRVTMTRDTSISTAYMELSRLRSDDTAVYYCARLAVREYYDNSGFYRKTTDAFDLWGQGTMVTVSS
VL: DIVMTQSPDSLAVSLGERATINCKSSQSVLYNSNNKNYLAWYQQKPGQPPKLLIYWASTRESGVPDRFSGSGSGTDFTLTINSLQAEDVAVYYCQQYSITTPPITFGQGTRLEIK
B3: GAR06 (antibody, V domains shown)
VH: QVTLRESGPALVKPTQTLTLTCTFSGFSVSSAGMCVSWIRQPPGKALEWLARIDWDDDKYYSTSLRTRLTISTDTSKNQVVLTMTNMDPVDTATYYCARTTMTTSYYFDSWGQGTLVTVSS
VL: QSALTQPRSVSGSPGQSVTISCTGTSSDVGGYDYVSWYQHHPGKAPKVVLYDVTKRPSGVPDRFSGSKSGNTASLTISGLQAEDEADYYCCSYAGSYAGVFGTGTKVTVL
B4: GAR07 (antibody, V domains shown)
VH: EVQLVQSGGGLVQPGGSLRLSCAASEFIVSSNYMSWVRQAPGKGLEWVSVIYSGGSTFYADSVKGRFTISRDNSKNTLHLQMNSLRVEDTAVYYCARDRGDRFDYWGQGTLVTVSS
VL: not shown
B5: GAR09 (antibody, V domains shown)
VH: EVQLVESGGGLVQPGGSLRLSCAASGFTVSYNYMSWVRQAPGKGLEWVSLIYSGGSTYYADSVKGRFTISRDSSKNTLYLQMNSLRVEDTAVYYCAREVPSRSGWSGGQGTLVTVSS
VL: DIVMTQSPSSLSASVGDRVTITCQASQDMNKYLNWYQQKPGKAPKLLIYDASNLETGVPSRFSGSGSGTNFTFTISSLQPEDIATYYCQQYDNLPPVFGPGTKVEIK
B6: GAR11 (antibody, V domains shown)
VH: EVQLVQSGTEVKKPGSSVKVSCEASGGTFSKYAITWVRQAPGQGLEWMGGIIPIFGTANYAQKFQDRVKITADEITSIAYMELNSLSSEDTAVYYCARDNRGRGFGEILSYYYGMDVWGQGTTVTVSS
VL: SALTQPASVSGSPGQSITISCTGTSSDVGGYNYVSWYQQHPGKAPKLMIYDVATRPSGVSDRFSGSKSGNTASLTISGLQAEDEADYYCSSYTSSNTLAFGGGTKLTVL
B7: GAR13 (antibody, V domains shown)
VH: EVQLVESGGGLVQPGGSLRLSCAASGFTFSNYDMHWVRQVTGKGLEWVSLIGTSGDTYYPGSVKGRFTISRDNAKNSLYLQMNSLRADDTAVYYCVRAAFDDHNIYSWFDSWGQGTLVTVSS
VL: DIQMTQSPSSLSASVGDRVTITCRASQSIGRYLNWYQQKPGKAPKLLIYTASSLQSGVPSRFSGSGSGTEFTLTISSLQPEDFATYYCQQSYNIPPLTFGGGTKVEIK
B8: GAR14 (antibody, V domains shown)
VH: EVQLVESGGGLVQPGGSLRLSCAASGFTFSRYDMHWVRQTTGKGLEWVSAIGTAGDTYYPDSVKGRFTISRENAKNSLHLQMNSLRVGDTAVYFCARAVDCSDISCYSNWYFDLWGRGTLVTVSS
VL: DIQLTQSPSSLSASVGDRVTITCRASQTISSFLNWYQQKPGKAPHLLIYAASSLQSGVPSRFSGSGSGTDFTLTITNLQPEDFATYYCQQSYSTPPITFGQGTRLEIK
B9: GAR15 (antibody, V domains shown)
VH: EVQLVESGGGLVQPGGSLRLSCAASGLTVSSNYMSWVRQAPGKGLEWVSVIYSGGSTFYADSVKGRFTISRHNSKNTLYLQMNSLRGDDTAVYYCARDLIYYGMDVWGQGTTVTVSS
VL: DIVMTQSPSSLSASVGDRVTITCRASQGISSSLAWYQQNPGKPPKLLIYAASTLQSGVPSRFSGSGSGTDFTLTISSLQPEDFATYYCQQLNSDLYTFGQGTKVEIK
B10: GAR16 (antibody, V domains shown)
VH: EVQLVESGGGVVQPGGSLRLSCAASGFTFSNYDMHWVRQATGKGLEWVSAIGTAGDTYYPDSVKGRFTISRDNAKNSLYLQMNSLRAEDTAVYYCTRVVHSSDWTSWSAGIHNWFDSWGQGTLVTVSS
VL: DIVMTQSPSSLSASVGDRVSITCRTSQSIRTYLNWYQQKPGKAPKLLIYASSSLQSGVPSRFSGSGSGTDFTLSISSLQPEDFATYYCQQSYSMPPWTFGQGTKLEIK
B11: GAR17 (antibody, V domains shown)
VH: EVQLVESGGGLGQPGGSLRLSCAASGFNFSNYAMSWVRQAPGKGLEWISTVGGSGDSTYYADSVKGRFTISIDNSKNRLYLQMNSLRSEDTAVYYCAKELAVMPPYFYYYAMDVWGQGTTVTVSS
VL: QPVLTQPPSASGTPGQRVTISCSGTTSNVGSTYVYWYQQLPGTAPKLLIYRYNQRPSGVPDRFSGSKSGTSASLVISGLRSDDEAVYYCATWDDSRHVVFGGGTKLTVL
B12: GAR18 (antibody, V domains shown)
VH: QVQLQESGPGLVKPSETLSLTCTVSGGSISDYYWSWIRQPPGKGLEWIGYIHGSGGTNYNPSLKSRVTILVDTSKNELSLKLSSVTTADTAVYYCARDDMISGLGYYGMDVWGQGTTVTVSS
VL: EIVMTQSPATLSLSPGERVTLSCRASQSVSSYLAWYQQKPGQAPRLLIYDASNRATGIPARFSGSGSGTDFTLTISSLEPEDFAVYYCQQRSNWPSTFGPGTKVDIK
B13: GAR20 (antibody, V domains shown)
VH: QVQLQQWGAGLLKPSETLSLTCAVYGGSFSDFYWSWIRQPPGKGLEWIGQIDHSGSPNYNPSLKSRVTMSVDTSKNHFSLRLTSMTAADTAVYYCAKGPRYGSGSFDPLGQGTLVTVSS
VL: SYELTQPPSVSVAPGQTARITCGGDNIGSKTVHWYQQKPGQAPVLVVYDDGDRPSGIPERFSGSNPGNTATLTISRVEAGDEADYYCQVWDSSSDSVVFGGGTELTVL
B14: GAR05, human IgG1 monoclonal antibody (antibody, V domains shown)
VH: EVQLVQSGGDLVQPGGSLRLSCAVSGFTVSRNYMTWVRQAPGRGLEWVSLIYPGGSAFYADSVKGRFTISRDNSKNTLYLQMNSLRVEDTAVYYCARDPVSTGHYHDSDYWGQGTLVTVSS
VL: DIQMTQSPSALSASVGDRVTITCQASQDINKFLNWYQQKPGKAPKLLIYDASNLETGVPSRFSGGGSGTDFTFTISSLQPEDIATYYCHQYDNLPRTFGQGTKVELK
notes: source: ExpiCHO, purified (Protein G resin)
B15: GAR03 Fab (Fab, V domains shown)
VH: QVQLVQSGAEVKKPGASVKVSCKASGYTFSSYDINWVRQAPGQGLEWMGWMSPNSGNTGYAQKFQGRVTMTRSTSMSTAYMELSSLRSEDTAVYFCARMSSSLTNYLDYWGQGTLVTVSS
VL: SYVLTQPPSVAVAPGQTARIRCGENDIGSKNVHWYQQKSGQAPVLVVYDDSDRPSGIPERFSGSNSGNTATLTISRVEAGDEADYYCQVWDSTGDHPDVVFGGGTKLTVL
notes: also called GAR03 antibody Fab; source: ExpiCHO, purified (Talon resin, S200 SEC)
B16: 10G4 Fab (Fab, V domains shown)
VH: QVQLVESGGGVVQPGRSLRLSCAASGFTFSSYGMHWVRQAPGKGLEWVAVIWYDGSDKYYADSVKGRFTISRDNSKNTLYLQINSLRAEDTAMYYCAREATAGFDYWGQGNLVTVSS
VL: NIQMTQSPSAMSASVGDRVTITCRARQDISSYLAWFQQKPGKVPKHLIYAASTLLSGVPSRFSGSGSGTEFTLTISSLQPEDFATYYCLQHNSYPYTFGQGTKLEIN
notes: also called additional antibody Fab (10G4)
B17: GAR12 Fab (Fab, V domains shown)
VH: EVQLVQSGGGLVQPGGSLRLSCAASGFTFSSYAMSWVRQAPGKGLEWVLSISGSGGSTYYADSVKGRFTISIDNSKKTVYLQMNSLRAEDTAVYYCAKSGEQQLVQAEYFHHWGQGTLVTVSS
VL: DIQMTQSPSTLSASVGDRVTITCRASQSIGRWLAWYQQKPGKAPKLLIYDASSLESGVPSRFSGSGFGTEFTLTISSLQPDDFATYYCQQCDSLLTFGGGTKLEIK
notes: also called GAR12 Fab fragment; source: ExpiCHO, purified (Talon resin, S200 SEC)
B18: GAR12, human IgG1 monoclonal antibody (antibody, V domains shown)
VH: B17 VH
VL: B17 VL
notes: as for B14
B19: S2H97, class 5 monoclonal antibody (antibody, V domains shown)
VH: QVRLVQSGAEVKKSGESLKISCKGSGYSFTSYWIGWVRQMPGKGLEWMGIIYPGDSDTRYSPSFQGQVTISADKSISTVYLQWSSLKASDTAMYYCARQWSHYTYDYYYWGQGTLVTISS
VL: QSVLTQPASVSGSPGQSITISCTGISSDVGGYNSVSWYQQHPGKAPKLMIYDVTNRPSGVSNRFSGSKSGNTASLTISGLQAEDEADYYCSSYTSSSTPPYVFGTGTKVSVL

Experiments:
SARS-CoV-1 RBD = SARS-CoV-1 RBD (SARS-CoV (SARS-CoV-1), isolate not …, UniProt P59594)
bat RaTG12-CoV RBD = bat RaTG12-CoV RBD (Bat coronavirus RaTG13 (printed as …, UniProt A0ABF7PLN6))
[1] = target: T1, SARS-CoV-2 RBD (residues 319-541), ancestral strain (SARS-CoV-2, UniProt P0DTC2)
[2] = target: T1, SARS-CoV-2 RBD (residues 319-541), …; experiment: BLI; settings: both partners purified
[3] = target: T2, C-terminally His-tagged SARS-CoV-2 RBD (residues 333-528) (SARS-CoV-2, UniProt P0DTC2); experiment: crystal structure; settings: both partners purified
T2 construct: source: expressed and purified as for the other RBDs (Expi293, Talon resin)

Row | Binder | binding result (SARS-CoV-1 RBD) | binding result (bat RaTG12-CoV RBD) | binding result [1] | further results
1 | B1 | binds | binds | binds | 
2 | B2 |  |  | binds | 
3 | B3 |  |  | binds | 
4 | B4 |  |  | binds | 
5 | B5 |  |  | binds | 
6 | B6 | binds | binds | binds | 
7 | B7 | binds | binds | binds | 
8 | B8 | binds | binds | binds | 
9 | B9 |  |  | binds | 
10 | B10 | binds | binds | binds | 
11 | B11 |  |  | binds | 
12 | B12 |  |  | binds | 
13 | B13 | binds | binds | binds | 
14 | B14 |  |  |  | Kd [2]: 0.54 nM
15 | B15 |  |  |  | binding result [3]: binds
16 | B16 |  |  |  | binding result [3]: binds
17 | B17 |  |  |  | binding result [3]: binds
18 | B18 |  |  |  | binding result [2]: binds
19 | B19 |  |  |  | binding result [2]: binds
